According to US20210292396A1:

What was measured:
Assay in all cases: cell-based or functional assay
[1] = biological target: Env of HIV isolate CAP210.E8 (clade C) (HIV)
[2] = biological target: Env of HIV isolate MI369.A5 (clade A) (HIV)
[3] = biological target: HIV Env of isolate CAP210.E8 (HIV)
[4] = biological target: HIV Env of isolate 5768.04 (HIV)
[5] = biological target: HIV Env of isolate QH209.14M.A2 (HIV)
[6] = biological target: HIV Env of isolate 3468.v1.c12 (HIV)
[7] = biological target: Env of HIV isolate ZM249.1 (clade C) (HIV)
[8] = biological target: Env of HIV isolate ZM53.12 (clade C) (HIV)
[9] = biological target: Env of HIV isolate CH119.10 (clade BC) (HIV)
[10] = biological target: HIV Env of isolate TV1.29 (HIV)
[11] = biological target: Env of HIV isolate T278-50 (clade AG) (HIV)
[12] = biological target: Env of HIV isolate SO18.18 (clade C) (HIV)
[13] = biological target: HIV Env of isolate ZM197.7 (HIV)
[14] = biological target: Env of HIV isolate Q461.e2 (clade AD) (HIV)
[15] = biological target: Env of HIV isolate 16845-2.22 (clade C) (HIV)
[16] = biological target: Env of HIV isolate X2131.C1.B5 (clade G) (HIV)
[17] = biological target: HIV Env of isolate 25925-2.22 (HIV)
[18] = biological target: Env of HIV isolate 6322.v4.c1 (clade C) (HIV)
[19] = biological target: HIV Env of isolate 16845-2.22 (HIV)
[20] = biological target: Env of HIV isolate 246-F3.C10.2 (clade AC) (HIV)
[21] = biological target: HIV Env of isolate 426c (HIV)
[22] = biological target: HIV Env of isolate 247-23 (HIV)
[23] = biological target: Env of HIV isolate 3637.v5.c3 (clade C) (HIV)
[24] = biological target: HIV Env of isolate BL01.DG (HIV)
[25] = biological target: Env of HIV isolate 620345.c1 (clade AE) (HIV)
[26] = biological target: Env of HIV isolate TH976.17 (clade AE) (HIV)
[27] = biological target: HIV Env of isolate Q769.h5 (HIV)
[28] = biological target: Env of HIV isolate Q842.d12 (clade A) (HIV)
[29] = biological target: Env of HIV isolate TV1.29 (clade C) (HIV)
[30] = biological target: Env of HIV isolate JRFL.JB (clade B) (HIV)
[31] = biological target: Env of HIV isolate TH023.6 (clade AE) (HIV)
[32] = biological target: HIV Env of isolate KNH1209.18 (HIV)
[33] = biological target: HIV Env of isolate 6838.v1.c35 (HIV)
[34] = biological target: Env of HIV isolate 3415.v1.c1 (clade A) (HIV)
[35] = biological target: Env of HIV isolate CNE19 (clade BC) (HIV)
[36] = biological target: HIV Env of isolate CNE7 (HIV)
[37] = biological target: HIV Env of isolate 0077.v1.c16 (HIV)
[38] = biological target: Env of HIV isolate ZM55.28a (clade C) (HIV)
[39] = biological target: Env of HIV isolate X1632.S2.B10 (clade G) (HIV)
[40] = biological target: HIV Env of isolate 16055-2.3 (HIV)
[41] = biological target: Env of HIV isolate 3337.v2.c6 (clade CD) (HIV)
[42] = biological target: Env of HIV isolate 57128.vrc15 (clade D) (HIV)
[43] = biological target: HIV Env of isolate T278-50 (HIV)
[44] = biological target: Env of HIV isolate CH038.12 (clade BC) (HIV)
[45] = biological target: HIV Env of isolate RHPA.7 (HIV)
[46] = biological target: Env of HIV isolate SC422.8 (clade B) (HIV)
[47] = biological target: Env of HIV isolate 3301.v1.c24 (clade AC) (HIV)
[48] = biological target: Env of HIV isolate 6785.v5.c14 (clade C) (HIV)
[49] = biological target: HIV Env of isolate 6785.v5.c14 (HIV)
[50] = biological target: Env of HIV isolate TH966.8 (clade AE) (HIV)
[51] = biological target: Envelope protein of SIVmac251.30.SG3 (clade NA)
[52] = biological target: Env of HIV isolate R3265.c6 (clade AE) (HIV)

PGT121 (antibody)
IC50, pseudovirus neutralization [1]: 4.28 µg/mL
IC50, pseudovirus neutralization [2]: 0.0507 µg/mL
IC80, pseudovirus neutralization [3]: > 50 µg/mL
IC80 [4]: 0.917 µg/mL
IC80 [5]: > 50 µg/mL
IC80 [6]: 0.413 µg/mL
IC50, pseudovirus neutralization [7]: > 50 µg/mL
IC50, pseudovirus neutralization [8]: 0.00267 µg/mL
IC50, pseudovirus neutralization [9]: 0.0313 µg/mL
IC80, pseudovirus neutralization [10]: 0.438 µg/mL
IC50, pseudovirus neutralization [11]: > 50 µg/mL
IC50, pseudovirus neutralization [12]: 0.00533 µg/mL
IC80, pseudovirus neutralization [13]: > 50 µg/mL
IC50, pseudovirus neutralization [14]: > 50 µg/mL
IC50, pseudovirus neutralization [15]: 2.72 µg/mL
IC50, pseudovirus neutralization [16]: 0.013 µg/mL
IC80, pseudovirus neutralization [17]: 0.0867 µg/mL
IC50, pseudovirus neutralization [18]: > 50 µg/mL
IC80, pseudovirus neutralization [19]: 18.6 µg/mL
IC50, pseudovirus neutralization [20]: > 50 µg/mL
IC80, pseudovirus neutralization [21]: > 50 µg/mL
IC80, pseudovirus neutralization [22]: > 50 µg/mL
IC50, pseudovirus neutralization [23]: > 50 µg/mL
IC80 [24]: > 50 µg/mL
IC50, pseudovirus neutralization [25]: > 50 µg/mL
IC50, pseudovirus neutralization [26]: > 50 µg/mL
IC80 [27]: > 50 µg/mL
IC50, pseudovirus neutralization [28]: 0.0217 µg/mL
IC50, pseudovirus neutralization [29]: 0.146 µg/mL
IC50, pseudovirus neutralization [30]: 0.0397 µg/mL
IC50, pseudovirus neutralization [31]: > 50 µg/mL
IC80 [32]: 0.0287 µg/mL
IC80, pseudovirus neutralization [33]: 0.21 µg/mL
IC50, pseudovirus neutralization [34]: > 50 µg/mL
IC50, pseudovirus neutralization [35]: 0.00933 µg/mL
IC80, pseudovirus neutralization [36]: 0.121 µg/mL
IC80, pseudovirus neutralization [37]: > 50 µg/mL
IC50, pseudovirus neutralization [38]: 0.0807 µg/mL
IC50, pseudovirus neutralization [39]: > 50 µg/mL
IC80, pseudovirus neutralization [40]: 2.78 µg/mL
IC50, pseudovirus neutralization [41]: 1.39 µg/mL
IC50, pseudovirus neutralization [42]: 1.27 µg/mL
IC80 [43]: > 50 µg/mL
IC50, pseudovirus neutralization [44]: 0.0113 µg/mL
IC80 [45]: 0.093 µg/mL
IC50, pseudovirus neutralization [46]: 0.115 µg/mL
IC50, pseudovirus neutralization [47]: 0.0217 µg/mL
IC50, pseudovirus neutralization [48]: 0.0503 µg/mL
IC80, pseudovirus neutralization [49]: 0.108 µg/mL
IC50, pseudovirus neutralization [50]: > 50 µg/mL
IC50, pseudovirus neutralization [51]: > 50 µg/mL
IC50, pseudovirus neutralization [52]: > 50 µg/mL
